Experimental data reported in article PMC5489213.

Legend:
[1] = molecular target: MAdV-2.IXeGFP virus particle (replication competent MAdV-2 with enhanced green fluorescent protein fused to minor capsid protein IX) (mouse adenovirus 2 | not stated)
[2] = molecular target: mouse adenovirus 2 (MAdV-2), wild type virus particle (mouse adenovirus 2)
[3] = molecular target: MAdV-2.IXeGFP virus particle (replication competent MAdV-2 with enhanced green fluorescent protein fused to minor capsid protein IX) (mouse adenovirus 2 | not stated); remark: listed apart in the source

Molecule | infection of CMT-93 cells by MAdV-2.IXeGFP pre-incubated with cryptdin 2 (dose-responsive over the indicated concentrations), relative to infection without defensin [1] | infection of CMT-93 cells by MAdV-2 pre-incubated with cryptdin 2 (dose-responsive over the indicated concentrations), relative to infection without defensin [2] | infection of CMT-93 cells by MAdV-2.IXeGFP pre-incubated with cryptdin 3 (indicated concentrations), relative to infection without defensin [3]
Cryptdin 2 (peptide) | 2.4 fold | 1.8 fold | 
LRDLVCYCRKRGCKRRERMNGTCRKGHLMYTLCCR [Cryptdin 3] |  |  | 1.7 fold
